These results are taken from paper PMC3570549, “HAMP Domain Conformers That Propagate Opposite Signals in Bacterial Chemoreceptors” (PLoS Biology, 2013).

Series [1] deals with the molecule itself. The series can be described thus: crystal structure; Aer2 1–172 mutant proteins; L44H by vapor diffusion, 1.5–1.7 M MgSO4, 0.1 M Tris pH 8.5, room temperature, space group P3(2)12; V33G in conditions and space group of the WT; molecular replacement.
Series [2] concerns the molecule itself. In words: pulsed dipolar ESR spectroscopy (PDS, double electron electron resonance); inter-subunit distances between MTSSL spin labels on one engineered Cys per subunit; 17.35 GHz; protein 25–50 µM.

B1: Aer2 1–172 L44H (domain or fragment)
chain: MGLFNAHAVAQQRADRIATLLQSFADGQLDTAVGEAPAPGYERHYDSLRALQRQLREQRAELQQVESLEAGLAEMSRQHEAGWIDQTIPAERLEGRAARIAKGVNELVAAHIAVKMKVVSVVTAYGQGNFEPLMDRLPGKKAQITEAIDGVRERLRGAAEATSAQLATAAYN
notes: Aer2, soluble receptor of Pseudomonas aeruginosa, residues 1-172 (HAMP1, HAMP2, HAMP3); also called L44H HAMP1 mutant; source: purified as previously described for the WT protein [7], induction temperature reduced to 18°C
Take B1: the binding result in series [1] is reported as “binds”.

B2: Aer2 1–172 V33G (domain or fragment)
chain: MGLFNAHAVAQQRADRIATLLQSFADGQLDTAGGEAPAPGYERLYDSLRALQRQLREQRAELQQVESLEAGLAEMSRQHEAGWIDQTIPAERLEGRAARIAKGVNELVAAHIAVKMKVVSVVTAYGQGNFEPLMDRLPGKKAQITEAIDGVRERLRGAAEATSAQLATAAYN
notes: Aer2, soluble receptor of Pseudomonas aeruginosa, residues 1-172 (HAMP1, HAMP2, HAMP3); also called HR2 mutant of HAMP1; source: purified as previously described for the WT protein [7], induction temperature reduced to 18°C
As for B2, the binding result in series [1] was “binds”.

B3: H1C AS1 (Aer2 1–172 D26C, MTSSL spin-labeled) (domain or fragment)
chain: MGLFNAHAVAQQRADRIATLLQSFACGQLDTAVGEAPAPGYERLYDSLRALQRQLREQRAELQQVESLEAGLAEMSRQHEAGWIDQTIPAERLEGRAARIAKGVNELVAAHIAVKMKVVSVVTAYGQGNFEPLMDRLPGKKAQITEAIDGVRERLRGAAEATSAQLATAAYN
modifications: MTSSL spin label on the engineered Cys at 26
notes: Aer2, soluble receptor of Pseudomonas aeruginosa, residues 1-172; source: Aer2 1–172 mutant proteins purified as previously described for the WT protein [7]; spin-labeled with MTSSL
As for B3, the binding result in series [2] is listed as “binds”.

B4: H2C AS1 (Aer2 1–172 A81C, MTSSL spin-labeled) (domain or fragment)
chain: MGLFNAHAVAQQRADRIATLLQSFADGQLDTAVGEAPAPGYERLYDSLRALQRQLREQRAELQQVESLEAGLAEMSRQHECGWIDQTIPAERLEGRAARIAKGVNELVAAHIAVKMKVVSVVTAYGQGNFEPLMDRLPGKKAQITEAIDGVRERLRGAAEATSAQLATAAYN
modifications: MTSSL spin label on the engineered Cys at 81
notes: as for B3
For the protein B4, the binding result in series [2] is “binds”.
